In patent publication US20250027955A1, “ETHYLENE RECEPTORS AND BINDING DOMAINS WITH MODIFIED BINDING KINETICS FOR ETHYLENE” (Trustees of Dartmouth College, priority 2022, published 2025):

Columns and labels:
[1] = molecular target: ETR1 (Arabidopsis thaliana, UniProt P49333); conditions: read-out: calculated dissociation constant (Kd); ethylene binding to ETR1; cited from earlier work
[2] = test system: plants; conditions: in vivo; cited from earlier work
[3] = previously reported; cited from earlier work
[4] = previously reported; cited from earlier work; remark: listed apart in the source
[5] = test system: Arabidopsis seedlings, etr1 etr2 ein4 background; conditions: previously reported; cited from earlier work
[6] = Copper binding assay: purified ETR1 transmembrane domain titrated to BCA2-Cu(I) complex, absorbance at 562 nm; conditions: ETR1-TMD expressed and purified from E. coli; Cu(I) stabilized by BCA
Text: Cu(I) was stabilized by the copper chelator BCA, and then titrated with increasing ETR1 protein concentration.
Titration curves were corrected for nonspecific binding observed with chemically and thermally denatured receptor to maximize signal to background levels.

[7] = Saturable [14C]ethylene binding to yeast transgenically expressing ETR1; set-up: species or system Saccharomyces cerevisiae
Text: Saturable ethylene binding of the ETR1 Asp25 mutants was examined by heterologous expression in yeast, with binding to [^14C]ethylene determined in the presence or absence of excess [^12C]ethylene (FIG. 2C). […] This included the ETR1^D25A mutant, consistent with previous observations, as well as for the ETR1^D25N and ETR1^D25Q mutants (FIG. 2C). Results from the ethylene binding assay are therefore consistent with the negative charge at D25 playing a significant role in mediating high-affinity ethylene binding.
[^14C]ethylene (specific activity=116 mCi/mmol) was obtained from ViTrax Radiochemicals (Placentia, CA) and trapped as the mercuric perchlorate complex as described. For ethylene binding assays in yeast, ETR1 was expressed in the yeast Saccharomyces cerevisiae (strain FY834) using the vector pYcDE-2 and a constitutive ADC1 promoter. The yeast growth media was supplemented with 40 μg L^−1 copper sulfate. Saturable ethylene binding to yeast was determined by analyzing binding of 0.3 g yeast per sample to 0.21 μL L^−1 [^14C]ethylene, in the presence or absence of excess [^12C]ethylene.

[8] = test system: Arabidopsis seedlings, etr1 etr2 ein4 background; assay: Triple-response hypocotyl growth assay of dark-grown seedlings expressing ETR1 transgenes; format: in vivo
Protocol: Functionality of the ETR1 Asp25 mutants was tested by transgenic expression in the etr1 etr2 ein4 Arabidopsis background.
Applicant can thus exploit the triple mutant to assess the ability of the ETR1 transgenes to rescue growth in the absence of ethylene as well as their ability to mediate a response to ethylene. Such an analysis indicates whether the encoded receptors are able to assume the ‘on’ conformation that represses the ethylene response in air, as well as the ‘off’ conformation that occurs in response to ethylene binding.
(§1) All Arabidopsis lines were of the Columbia (Col-0) accession. The etr1-1 and etr1-6 etr2-3 ein4-4 mutant lines have been described. Analysis of the triple response of dark-grown Arabidopsis seedlings to ethylene was performed as described previously. Briefly, seedlings were grown at 22° C. on vertically oriented plates on half-strength Murashige and Skoog basal medium with Gamborg's vitamins (pH 5.75; Sigma), 0.8% (w/v) agar, and 5 μM aminoethoxyvinylglycine (AVG) to inhibit ethylene biosynthesis. The stratified seed was exposed to light for 8 hr and then moved to the dark in the presence or absence of ethylene, with analysis of the seedling growth being performed following 4 days total growth. For short-term kinetic analysis of dark-grown seedlings, time-lapse imaging and growth rate analysis of hypocotyls were carried out as described previously.

[9] = test system: Arabidopsis seedlings, etr1 etr2 ein4 background; assay: Short-term kinetic analysis of hypocotyl growth response to ethylene; format: in vivo
Protocol: Based on the differences Applicant uncovered for the long-term ethylene growth responses for the Asp25 mutants, Applicant also analyzed their short-term hypocotyl growth and molecular responses to ethylene. To this end, Applicant performed a short-term kinetic analysis, analyzing the initial hypocotyl growth inhibition in response to 10 μL/L ethylene and the growth recovery following the removal of ethylene after two hours of treatment (FIG. 6A).
as §1

[10] = test system: OSR1, ERF1, EXP5 and EXPb1 expression; assay: Ethylene-dependent gene expression by RT-qPCR; format: in vivo, Arabidopsis; conditions: 0 or 1 μL L^−1 ethylene for 2 hr
Protocol: To examine the short-term molecular response, Applicant characterized ethylene-dependent gene expression for the ETR1 Asp25 mutants (FIG. 6B). Expression of OSR1 and ERF1 is induced, whereas the expression of EXP5 and EXPb1 is repressed, in response to ethylene.
RNA isolation and RT-qPCR was performed with three biological replicates and two technical replicates of each.

[11] = Saturable [14C]ethylene binding of Arabidopsis seedlings (in planta); conditions: two-week-old green seedlings, 0.31 μL L^−1 [14C]ethylene, 5 μM AVG
Protocol: [^14C]ethylene binding was examined in two-week-old green seedlings grown on media containing 5 μM aminoethoxyvinylglycine (AVG) to inhibit ethylene biosynthesis.
For ethylene binding assays with Arabidopsis seedlings, two-week-old green seedlings were used that had been grown on media containing 5 μl M AVG to inhibit ethylene biosynthesis, with ˜1 g seedlings per sample. The fresh weight of seedlings was determined, and each sample packaged into bags formed from a layer of cheese cloth and stapled at the top. Humidity was maintained in the ethylene binding chambers by use of moistened paper towels. Saturable ethylene binding was determined by analyzing binding to 0.31 μL L^−1 [^14C]ethylene, in the presence or absence of excess [^12C]ethylene.

[12] = test system: dark-grown Arabidopsis seedlings; assay: Silver sensitivity assay: effect of silver on ethylene response of dark-grown seedlings; format: in vivo; conditions: transgene in etr1 etr2 ein4 background, 10 μL/L ethylene
Text: As an initial test for the feasibility of the first hypothesis, Applicant asked if ETR1^D25N could still bind a metal cofactor, and therefore potentially ethylene, in planta. For this purpose, Applicant examined the effects of silver (Ag) on ethylene sensitivity. Silver is thought to substitute for the copper cofactor and, although receptors containing silver can still bind ethylene, they no longer transmit the signal, resulting in ethylene insensitivity.

[13] = test system: Arabidopsis seedlings, etr1 etr2 ein4 ers1 ers2 background; assay: Ethylene and 1-MCP response of ETR1^D25N lines lacking all five native ethylene receptors; format: in vivo; conditions: etr1 etr2 ein4 ers1 ers2 lines #11 and #15; 1 μM ethylene

Sequence of ETR1 (P49333 whole entry): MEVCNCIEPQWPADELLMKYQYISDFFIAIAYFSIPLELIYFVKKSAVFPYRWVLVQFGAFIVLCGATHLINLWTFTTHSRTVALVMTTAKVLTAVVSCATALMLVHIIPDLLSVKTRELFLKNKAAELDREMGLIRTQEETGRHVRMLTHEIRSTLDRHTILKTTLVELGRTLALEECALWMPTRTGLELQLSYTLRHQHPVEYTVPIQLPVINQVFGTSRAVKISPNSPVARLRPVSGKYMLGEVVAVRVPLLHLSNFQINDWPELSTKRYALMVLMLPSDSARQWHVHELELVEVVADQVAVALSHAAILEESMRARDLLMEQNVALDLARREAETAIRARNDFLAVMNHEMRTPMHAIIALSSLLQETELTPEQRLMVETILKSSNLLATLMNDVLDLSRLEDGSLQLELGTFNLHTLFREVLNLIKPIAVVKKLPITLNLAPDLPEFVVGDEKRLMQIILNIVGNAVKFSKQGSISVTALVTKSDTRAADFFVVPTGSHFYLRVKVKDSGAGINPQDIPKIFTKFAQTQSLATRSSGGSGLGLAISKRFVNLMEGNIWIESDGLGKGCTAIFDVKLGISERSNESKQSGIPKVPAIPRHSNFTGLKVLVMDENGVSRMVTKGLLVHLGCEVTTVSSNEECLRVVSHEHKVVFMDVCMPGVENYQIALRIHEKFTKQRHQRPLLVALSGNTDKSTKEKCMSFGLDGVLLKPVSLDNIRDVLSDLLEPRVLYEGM

For C=C [Ethylene, ethylene], which Kd [1] is on record?
Its Kd is 2.4 nM.

What about the “ethylene concentration plants respond to (as low as)” value [2] of the same molecule?
The value was 0.2 nL L^−1.

B1: etr1-1: well-characterized ETR1 missense mutation Cys65Tyr; ethylene-insensitive control (protein, UniProt P49333 1-738, looked up, variant C65Y)
Ethylene receptor 1: MEVCNCIEPQWPADELLMKYQYISDFFIAIAYFSIPLELIYFVKKSAVFPYRWVLVQFGAFIVLYGATHLINLWTFTTHSRTVALVMTTAKVLTAVVSCATALMLVHIIPDLLSVKTRELFLKNKAAELDREMGLIRTQEETGRHVRMLTHEIRSTLDRHTILKTTLVELGRTLALEECALWMPTRTGLELQLSYTLRHQHPVEYTVPIQLPVINQVFGTSRAVKISPNSPVARLRPVSGKYMLGEVVAVRVPLLHLSNFQINDWPELSTKRYALMVLMLPSDSARQWHVHELELVEVVADQVAVALSHAAILEESMRARDLLMEQNVALDLARREAETAIRARNDFLAVMNHEMRTPMHAIIALSSLLQETELTPEQRLMVETILKSSNLLATLMNDVLDLSRLEDGSLQLELGTFNLHTLFREVLNLIKPIAVVKKLPITLNLAPDLPEFVVGDEKRLMQIILNIVGNAVKFSKQGSISVTALVTKSDTRAADFFVVPTGSHFYLRVKVKDSGAGINPQDIPKIFTKFAQTQSLATRSSGGSGLGLAISKRFVNLMEGNIWIESDGLGKGCTAIFDVKLGISERSNESKQSGIPKVPAIPRHSNFTGLKVLVMDENGVSRMVTKGLLVHLGCEVTTVSSNEECLRVVSHEHKVVFMDVCMPGVENYQIALRIHEKFTKQRHQRPLLVALSGNTDKSTKEKCMSFGLDGVLLKPVSLDNIRDVLSDLLEPRVLYEGM
Which results are given for B1?
copper cofactor binding (previous studies) [3]: no longer binds the copper cofactor; ethylene binding (previous studies) [4]: no longer binds ethylene; ethylene sensitivity of plants (previous studies) [5]: confers dominant ethylene insensitivity

B2: ETR1^D25N: ETR1 with site-directed mutation Asp25Asn, carboxylic acid changed to carboxamide (protein, UniProt P49333 1-738, looked up, variant D25N)
Ethylene receptor 1: MEVCNCIEPQWPADELLMKYQYISNFFIAIAYFSIPLELIYFVKKSAVFPYRWVLVQFGAFIVLCGATHLINLWTFTTHSRTVALVMTTAKVLTAVVSCATALMLVHIIPDLLSVKTRELFLKNKAAELDREMGLIRTQEETGRHVRMLTHEIRSTLDRHTILKTTLVELGRTLALEECALWMPTRTGLELQLSYTLRHQHPVEYTVPIQLPVINQVFGTSRAVKISPNSPVARLRPVSGKYMLGEVVAVRVPLLHLSNFQINDWPELSTKRYALMVLMLPSDSARQWHVHELELVEVVADQVAVALSHAAILEESMRARDLLMEQNVALDLARREAETAIRARNDFLAVMNHEMRTPMHAIIALSSLLQETELTPEQRLMVETILKSSNLLATLMNDVLDLSRLEDGSLQLELGTFNLHTLFREVLNLIKPIAVVKKLPITLNLAPDLPEFVVGDEKRLMQIILNIVGNAVKFSKQGSISVTALVTKSDTRAADFFVVPTGSHFYLRVKVKDSGAGINPQDIPKIFTKFAQTQSLATRSSGGSGLGLAISKRFVNLMEGNIWIESDGLGKGCTAIFDVKLGISERSNESKQSGIPKVPAIPRHSNFTGLKVLVMDENGVSRMVTKGLLVHLGCEVTTVSSNEECLRVVSHEHKVVFMDVCMPGVENYQIALRIHEKFTKQRHQRPLLVALSGNTDKSTKEKCMSFGLDGVLLKPVSLDNIRDVLSDLLEPRVLYEGM
For B2, which copper binding [6] is on record?
Its copper binding is “minimal residual binding”.

What about the “saturable [14C]ethylene binding” value ([7]; 0.21 μL L^−1 [14C]ethylene, with or without excess [12C]ethylene) of the same molecule?
Its value is “No saturable [^14C]ethylene binding was detected”.

And the koff increase ([7]; relative to ETR1^wt, suggested by inability to detect [14C]ethylene binding)?
The koff increase was “at least 100 fold”.

And the “rescue of growth of etr1 etr2 ein4 triple mutant in air” value ([8]; absence of ethylene, hypocotyl and adult shoot growth)?
Its value is “rescued growth”.

And the “hypocotyl growth response to ethylene” value ([8]; dark-grown seedlings, 0 or 1 μL L^−1 ethylene)?
The value was “rescued the hypocotyl growth response to ethylene to the same degree as ETR1^wt”.

And the “short-term hypocotyl growth response to ethylene” value ([9]; 10 μL/L ethylene for 2 hr)?
The value was “rapid growth response to ethylene”.

And the “growth recovery upon ethylene removal” value ([9]; after 2 hr of 10 μL/L ethylene, 5-hr recovery in air)?
Its value is “growth recovery intermediate between that exhibited by the wild-type and the etr1 etr2 ein4 seedlings”.

And the “molecular response to ethylene (ethylene-dependent gene expression)” value [10]?
The value was “consistent with what is observed in the wild-type control”.

And the “ethylene binding in planta versus etr1 etr2 ein4 basal level” value [11]?
Its value is “no increase in ethylene binding”.

What about the “ability of silver to block the ethylene response in transgene lines” value [12] of the same molecule?
The value was “restores the ability of silver to block the ethylene response”.

And the “response to ethylene without other native receptors” value [13]?
Its value is “still responded to ethylene”.
